From patent US20050175608A1 (Kyowa Kirin, published 2005)

T1: FGF-8 (manufactured by R & D) (Homo sapiens (Human), UniProt P55075 23-215)
T1 sequence: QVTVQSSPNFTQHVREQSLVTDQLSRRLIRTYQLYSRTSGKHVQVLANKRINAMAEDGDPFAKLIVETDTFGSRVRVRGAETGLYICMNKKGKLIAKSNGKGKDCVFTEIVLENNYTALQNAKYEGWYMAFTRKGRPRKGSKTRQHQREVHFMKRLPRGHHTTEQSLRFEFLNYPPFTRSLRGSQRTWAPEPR

T2: BSA-compound 1 (conjugate of the human FGF-8 partial peptide compound 1 with bovine serum albumin) (human, not fully specified; C-terminal cysteine conjugated to BSA through SMCC)
T2 construct: Coated on ELISA plates; the BSA carrier is not written as a chain
T2 peptide: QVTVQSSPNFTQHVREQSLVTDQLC

T3: compound 1 as a partial peptide of FGF-8 with the C terminal labeled with biotin (human, C terminal labeled with biotin)
T3 construct: Captured on Sensor Chip SA (35 RU) for BIAcore 2000; also called compound 1 labeled with biotin; FGF-8 peptide
T3 peptide: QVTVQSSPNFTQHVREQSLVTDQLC

B1: anti-FGF-8 neutralizing CDR-grafted antibody HV0LV3-3/CHO (antibody, V domains shown)
VH: QVQLVQSGAEVKKPGASVKVSCKASGYTFTDYYLNWVRQAPGQGLEWMGEIDPGSDSIYYNENLEGRVTITADTSTSTAYMELSSLRSEDTAVYYCARYGYSRYDVRFVYWGQGTLVTVSS
VL: DIVMTQSPLSLPVSLGEPASISCRSSQSLVHSNGRTYLEWYLQKPGQSPQVLIYKVSNRISGVPDRFSGSGSGTDFTLKISRVEAEDVGVYYCFQGSHVPYTFGQGTKVEIK
notes: HV.0 + LV.3-3; CHO/DG44 cell-derived
B2: anti-FGF-8 neutralizing CDR-grafted antibody HV0LV4-3/CHO (antibody, V domains shown)
VH: QVQLVQSGAEVKKPGASVKVSCKASGYTFTDYYLNWVRQAPGQGLEWMGEIDPGSDSIYYNENLEGRVTITADTSTSTAYMELSSLRSEDTAVYYCARYGYSRYDVRFVYWGQGTLVTVSS
VL: DIVMTQSPLSLPVSLGEPASISCRSSQSLVHSNGRTYLEWYLQKPGQSPQVLIYKVSNRISGVPDRFSGSGSGTDFTLKISRVEAEDVGVYFCFQGSHVPYTFGQGTKVEIK
notes: HV.0 + LV.4-3; also called KM8035
B3: anti-FGF-8 neutralizing CDR-grafted antibody HV0LV6 (antibody, V domains shown)
VH: QVQLVQSGAEVKKPGASVKVSCKASGYTFTDYYLNWVRQAPGQGLEWMGEIDPGSDSIYYNENLEGRVTITADTSTSTAYMELSSLRSEDTAVYYCARYGYSRYDVRFVYWGQGTLVTVSS
VL: DVVMTQSPLSLPVSLGEPASISCRSSQSLVHSNGRTYLEWYLQKPGQSPKVLIYKVSNRISGVPDRFSGSGSGTDFTLKISRVEAEDVGVYFCFQGSHVPYTFGQGTKVEIK
notes: HV.0 + LV.6; YB2/0 cell-derived; also called KM8037
B4: anti-FGF-8 neutralizing CDR-grafted antibody HV0LV0 (antibody, V domains shown)
VH: QVQLVQSGAEVKKPGASVKVSCKASGYTFTDYYLNWVRQAPGQGLEWMGEIDPGSDSIYYNENLEGRVTITADTSTSTAYMELSSLRSEDTAVYYCARYGYSRYDVRFVYWGQGTLVTVSS
VL: DIVMTQSPLSLPVTPGEPASISCRSSQSLVHSNGRTYLEWYLQKPGQSPQLLIYKVSNRISGVPDRFSGSGSGTDFTLKISRVEAEDVGVYYCFQGSHVPYTFGQGTKVEIK
notes: HV.0 + LV.0
B5: anti-FGF-8 neutralizing CDR-grafted antibody HV6LV6 (antibody, V domains shown)
VH: QVQLVQSGAEVARPGASVKVSCKASGYTFTDYYLNWVRQRSGQGLEWIGEIDPGSDSIYYNENLEGRVTITADTSTSTAYMELSSLRSEDTAVYFCARYGYSRYDVRFVYWGQGTLVTVSS
VL: DVVMTQSPLSLPVSLGEPASISCRSSQSLVHSNGRTYLEWYLQKPGQSPKVLIYKVSNRISGVPDRFSGSGSGTDFTLKISRVEAEDVGVYFCFQGSHVPYTFGQGTKVEIK
notes: HV.6 + LV.6
B6: anti-FGF-8 neutralizing CDR-grafted antibody HV0LV3-1/CHO (antibody, V domains shown)
VH: QVQLVQSGAEVKKPGASVKVSCKASGYTFTDYYLNWVRQAPGQGLEWMGEIDPGSDSIYYNENLEGRVTITADTSTSTAYMELSSLRSEDTAVYYCARYGYSRYDVRFVYWGQGTLVTVSS
VL: DVVMTQSPLSLPVTPGEPASISCRSSQSLVHSNGRTYLEWYLQKPGQSPQVLIYKVSNRISGVPDRFSGSGSGTDFTLKISRVEAEDVGVYFCFQGSHVPYTFGQGTKVEIK
notes: HV.0 + LV.3-1; also called KM8036
B7: anti-FGF-8 neutralizing CDR-grafted antibody HV0LV0/CHO (antibody, V domains shown)
VH: QVQLVQSGAEVKKPGASVKVSCKASGYTFTDYYLNWVRQAPGQGLEWMGEIDPGSDSIYYNENLEGRVTITADTSTSTAYMELSSLRSEDTAVYYCARYGYSRYDVRFVYWGQGTLVTVSS
VL: DIVMTQSPLSLPVTPGEPASISCRSSQSLVHSNGRTYLEWYLQKPGQSPQLLIYKVSNRISGVPDRFSGSGSGTDFTLKISRVEAEDVGVYYCFQGSHVPYTFGQGTKVEIK
notes: HV.0 + LV.0; CHO/DG44 cell-derived
B8: anti-FGF-8 neutralizing CDR-grafted antibody HV0LV2-1/CHO (antibody, V domains shown)
VH: QVQLVQSGAEVKKPGASVKVSCKASGYTFTDYYLNWVRQAPGQGLEWMGEIDPGSDSIYYNENLEGRVTITADTSTSTAYMELSSLRSEDTAVYYCARYGYSRYDVRFVYWGQGTLVTVSS
VL: DIVMTQSPLSLPVTPGEPASISCRSSQSLVHSNGRTYLEWYLQKPGQSPQVLIYKVSNRISGVPDRFSGSGSGTDFTLKISRVEAEDVGVYFCFQGSHVPYTFGQGTKVEIK
notes: HV.0 + LV.2-1; CHO/DG44 cell-derived
B9: anti-FGF-8 neutralizing CDR-grafted antibody HV0LV2-2/CHO (antibody, V domains shown)
VH: QVQLVQSGAEVKKPGASVKVSCKASGYTFTDYYLNWVRQAPGQGLEWMGEIDPGSDSIYYNENLEGRVTITADTSTSTAYMELSSLRSEDTAVYYCARYGYSRYDVRFVYWGQGTLVTVSS
VL: DVVMTQSPLSLPVTPGEPASISCRSSQSLVHSNGRTYLEWYLQKPGQSPQLLIYKVSNRISGVPDRFSGSGSGTDFTLKISRVEAEDVGVYFCFQGSHVPYTFGQGTKVEIK
notes: HV.0 + LV.2-2; CHO/DG44 cell-derived
B10: anti-FGF-8 neutralizing CDR-grafted antibody HV0LV3-2/CHO (antibody, V domains shown)
VH: QVQLVQSGAEVKKPGASVKVSCKASGYTFTDYYLNWVRQAPGQGLEWMGEIDPGSDSIYYNENLEGRVTITADTSTSTAYMELSSLRSEDTAVYYCARYGYSRYDVRFVYWGQGTLVTVSS
VL: DIVMTQSPLSLPVSLGEPASISCRSSQSLVHSNGRTYLEWYLQKPGQSPQLLIYKVSNRISGVPDRFSGSGSGTDFTLKISRVEAEDVGVYFCFQGSHVPYTFGQGTKVEIK
notes: HV.0 + LV.3-2; CHO/DG44 cell-derived
B11: anti-FGF-8 neutralizing CDR-grafted antibody HV0LV4-1/CHO (antibody, V domains shown)
VH: QVQLVQSGAEVKKPGASVKVSCKASGYTFTDYYLNWVRQAPGQGLEWMGEIDPGSDSIYYNENLEGRVTITADTSTSTAYMELSSLRSEDTAVYYCARYGYSRYDVRFVYWGQGTLVTVSS
VL: DVVMTQSPLSLPVTPGEPASISCRSSQSLVHSNGRTYLEWYLQKPGQSPKVLIYKVSNRISGVPDRFSGSGSGTDFTLKISRVEAEDVGVYFCFQGSHVPYTFGQGTKVEIK
notes: HV.0 + LV.4-1; CHO/DG44 cell-derived
B12: anti-FGF-8 neutralizing CDR-grafted antibody HV0LV4-2/CHO (antibody, V domains shown)
VH: QVQLVQSGAEVKKPGASVKVSCKASGYTFTDYYLNWVRQAPGQGLEWMGEIDPGSDSIYYNENLEGRVTITADTSTSTAYMELSSLRSEDTAVYYCARYGYSRYDVRFVYWGQGTLVTVSS
VL: DVVMTQSPLSLPVSLGEPASISCRSSQSLVHSNGRTYLEWYLQKPGQSPQLLIYKVSNRISGVPDRFSGSGSGTDFTLKISRVEAEDVGVYFCFQGSHVPYTFGQGTKVEIK
notes: HV.0 + LV.4-2; CHO/DG44 cell-derived
B13: anti-FGF-8 neutralizing CDR-grafted antibody HV0LV6/CHO (antibody, V domains shown)
VH: QVQLVQSGAEVKKPGASVKVSCKASGYTFTDYYLNWVRQAPGQGLEWMGEIDPGSDSIYYNENLEGRVTITADTSTSTAYMELSSLRSEDTAVYYCARYGYSRYDVRFVYWGQGTLVTVSS
VL: DVVMTQSPLSLPVSLGEPASISCRSSQSLVHSNGRTYLEWYLQKPGQSPKVLIYKVSNRISGVPDRFSGSGSGTDFTLKISRVEAEDVGVYFCFQGSHVPYTFGQGTKVEIK
notes: HV.0 + LV.6; CHO/DG44 cell-derived; also called KM8034
B14: anti-FGF-8 neutralizing chimeric antibody KM3034 (antibody, V domains shown)
VH: QVQLQQSGAEVARPGASVKLSCKASGYTFTDYYLNWVKQRSGQGLEWIGEIDPGSDSIYYNENLEGRATLTADKSSSTAYMQLNSLTSEDSAVYFCARYGYSRYDVRFVYWGQGTLVTVST
VL: DVLMTQTPLSLPVSLGDQASISCRSSQSLVHSNGRTYLEWYLQKPGQSPKVLIYKVSNRISGVPDRFSGSGSGTDFTLKISRVEAEDLGVYFCFQGSHVPYTFGGGTKLEIK
notes: expressed in CHO/DG44 cells; also called human chimeric antibody KM3034

The binders below were run against T1, FGF-8 (manufactured by R & D) (assay: cell-based or functional assay).
B1 was tested, and the “FGF-8 neutralizing activity (FGF-8-dependent growth of SC-3 cells), relative to KM3034” value was ~0.5 fold of KM3034. With B2 the “FGF-8 neutralizing activity (FGF-8-dependent growth of SC-3 cells), relative to KM3034” value was ~0.5 fold of KM3034.

Biological target: T2, BSA-compound 1 (conjugate of the human …)
Test: ELISA, plate coated with BSA-compound 1
B3: binds. B4: binds. B5: binds.

Biological target: T3, compound 1 as a partial peptide of …
Test: BIAcore 2000, biotin-labeled compound 1 on SA chip, antibody 16.7 µg/mL; dissociation hardly observed
Procedure: (§1) In order to examine the FGF-8 binding activity of the anti-FGF-8 neutralizing CDR-grafted antibodies obtained in 5. of Reference Example 3, the FGF-8 binding activity of the various anti-FGF-8 neutralizing CDR-grafted antibodies was measured and compared through BIAcore 2000 using compound 1 as a partial peptide of FGF-8 with the C terminal labeled with biotin in the following manner. The anti-FGF-8 neutralizing chimeric antibody KM3034 derived from CHO/DG44 cells obtained in 3. (1) of Reference Example 1 was used as a positive control.
(§2) HBS-EP was used as a sample diluent and a buffer during measurement. First, Sensor Chip SA (manufactured by BIACORE) was installed, and 5 μL of compound 1 labeled with biotin which had been adjusted to 0.05 μg/mL was added at a flow rate of 5 μL/min. Then, 5 μL of a 10 mmol/L glycine-hydrochloride solution (pH 1.5) was added twice continuously to wash the tip surface. The immobilization amount of the FGF-8 peptide was 35 RU.
60 μL of each of the antibody solutions was added to an FGF-8 peptide immobilized flow cell at a flow rate of 20 μL/min, and the dissociation reaction was then monitored for 3 minutes. After the dissociation reaction, 20 μL of 10 mmol/L glycine-hydrochloride solution (pH 1.5) was added twice continuously to regenerate the chip surface. […]
B1: binds. B2: binds.

Biological target: T3, compound 1 as a partial peptide of …
Test: BIAcore 2000, biotin-labeled compound 1 on SA chip (35 RU), antibody 16.7 µg/mL; dissociation hardly observed
Procedure: as §1, §2
60 μL of each of the antibody solutions was added to an FGF-8 peptide immobilized flow cell at a flow rate of 20 μL/min, and the dissociation reaction was then monitored for 3 minutes. After the dissociation reaction, 20 μL of 10 mmol/L glycine-hydrochloride solution (pH 1.5) was added twice continuously to regenerate the chip surface. This cycle was performed on the antibody solution at various concentrations (from 50 to 1.85 μg/mL) to obtain sensor grams at various concentrations. The sensor grams of the respective antibodies were converted to sensor grams of specific reactions by deduceing a sensor gram obtained using the chimeric antibody KM871 to GD3 as a negative control.
B6: binds. B7: binds. B8: binds. B9: binds. B10: binds. B11: binds. B12: binds. B13: binds. B14: binds.
